Experimental findings from patent US20250368729A1 are described below.

In assay [1] the target is synthetic amyloid-like fibrils of recombinant amyloidogenic λ6 variable domain protein (rVλ6Wil). As to the kind of experiment: EuLISA, fibrils coated on plate (FIG. 13B).
Assay [2] shares this target. As to the kind of experiment: EuLISA, fibrils coated on plate (FIG. 13A).

B1: humanized antibody VH6/VL3 (antibody, V domains shown)
VH: QVQLQESGPGLVKPSETLSLTCTVSGFSLSSYGVSWVRQPPGKGLEWLGVIWGDGSTNYHPNLMSRLSISKDTSKNQFSLKLSSVTAADTATYYCVTLDYWGQGTSVTVSS
VL: DVVMTQSPLSLPVTLGQPASISCRSSQSLVHRNGNTYLHWYLQRPGQSPRLLIYKVSNRFSGVPDRFSGSGSGTDFTLKISRVEAEDVGLYFCFQTTYVPNTFGGGTKLEIK
In general, EC50 refers to the concentration at which the effect is half-maximal. Turning to B1, the EC50 in assay [1] and in assay [2] was 95 nM in each case.

B2: humanized antibody VH8/VL4 (antibody, V domains shown)
VH: QVQLQESGPGLVKPSETLSLTCTVSGFSLSSYGVSWIRQPPGKGLEWIGVIWGDGSTNYHPNLMSRVTISKDTSKSQFSLKLSSVTAADTAVYYCVTLDYWGQGTSVTVSS
VL: DVVMTQSPLSLPVTLGQPASISCRSSQSLVHRNGNTYLHWFQQRPGQSPRLLIYKVSNRFSGVPDRFSGSGSGTDFTLKISRVEAEDVGVYFCFQTTYVPNTFGGGTKLEIK
Consider B2, for which the EC50 in assay [2] is 16 nM.

B3: humanized antibody VH10/VL4 (antibody, V domains shown)
VH: QVQLQESGPGLVKPSETLSLTCTVSGFSLSSYGVSWIRQPPGKGLEWLGVIWGDGSTNYHPNLMSRLSISKDTSKSQVLLKLSSVTAADTAVYYCVTLDYWGQGTSVTVSS
VL: DVVMTQSPLSLPVTLGQPASISCRSSQSLVHRNGNTYLHWFQQRPGQSPRLLIYKVSNRFSGVPDRFSGSGSGTDFTLKISRVEAEDVGVYFCFQTTYVPNTFGGGTKLEIK
On to B3, for which the EC50 in assay [2] is 17 nM.

B4: humanized antibody VH7/VL4 (antibody, V domains shown)
VH: QVQLQESGPGLVKPSETLSLTCTVSGFSLSSYGVSWIRQPPGKGLEWIGVIWGDGSTNYHPNLMSRVTISKDTSKNQVLLKLSSVTAADTAVYYCVTLDYWGQGTSVTVSS
VL: DVVMTQSPLSLPVTLGQPASISCRSSQSLVHRNGNTYLHWFQQRPGQSPRLLIYKVSNRFSGVPDRFSGSGSGTDFTLKISRVEAEDVGVYFCFQTTYVPNTFGGGTKLEIK
Turning to B4, the EC50 in assay [2] is 75 nM.
